16 molecules from US20200392236A1 (JUNO THERAPEUTICS, published 2020) can be followed below.

To fix the notation:
T1: human BCMA (B-cell maturation antigen) on cells (human, UniProt Q02223 1-184)
T1 construct: whole, on cells; also called hBCMA; hBCMA/HEK293 cell line
T1 sequence (looked up): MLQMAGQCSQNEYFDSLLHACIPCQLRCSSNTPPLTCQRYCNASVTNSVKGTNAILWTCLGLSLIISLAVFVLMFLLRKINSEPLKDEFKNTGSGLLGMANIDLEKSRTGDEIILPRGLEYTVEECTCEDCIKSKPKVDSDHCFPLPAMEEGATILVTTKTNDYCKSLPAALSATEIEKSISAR

T2: BCMA peptide 30SNTPPLTCQR39 (human)
T2 construct: Peptide of the CLIPS library; recognised in a linear form
T2 peptide: SNTPPLTCQR

B1: BCMA-22 anti-BCMA scFv (scFv)
scFv: EVQLVESGGGLVKPGGSLRLSCAASGFTFSDYYMSWIRQAPGKGLEWVSYISSSGSTIYYADSVKGRFTISRDNAKNSLYLQMNSLRAEDTAVYYCAKVDGDYTEDYWGQGTLVTVSSGGGGSGGGGSGGGGSQSALTQPASVSGSPGQSITISCTGSSSDVGKYNLVSWYQQPPGKAPKLIIYDVNKRPSGVSNRFSGSKSGNTATLTISGLQGDDEADYYCCSYGGSRSYVFGTGTKVTVL
notes: VH-(G4S)3-VL scFv
B2: BCMA-21 anti-BCMA scFv (scFv)
scFv: EVQLVESGGGLVKPGGSLKLSCAASGFTFSDYYMSWIRQAPGKGLEWVSYISSSGSTIYYADSVKGRFTISRDNAKNSLYLQMNSLRAEDTAVYYCAKVDGGYTEDYWGQGTLVTVSSGGGGSGGGGSGGGGSQSVLTQPPSASGTPGQRVTISCSGSGSNIGSNDVSWYQQIPGTAPKLLIYWNDQRPSGVPDRFSGSKSGISASLAISGLRSEDEADYYCAAWDDSLNGYVFGTGTKVTVL
notes: VH-(G4S)3-VL scFv
B3: BCMA-20 anti-BCMA scFv (scFv)
scFv: EVQLLESGGGLVQPGRSLRLSCAASGFTFDDYAMHWVRQAPGKGLEWVSGISWNSGSIGYADSVKGRFTISRDNAKNSLYLQMNSLRAEDTALYYCAKGGLGITPYYFDYWGQGTLVTVSSGGGGSGGGGSGGGGSQPVLTQPPSASGTPGQRVTISCSGGKTVNWFRQVPGTAPQLLIYSNDQRPSGVPDRFSGSKSGSSASLDISGLQSEDEAYYYCGSWDDSLNAWVFGGETKLTVL
notes: VH-(G4S)3-VL scFv
B4: BCMA-18 anti-BCMA scFv (scFv)
scFv: EVQLLESGGGLVQPGGSLRLSCAASGFTFSSYWMSWHRQAPGKGPEWVAHINQDGSEKYYVDSVKGRFTISRDNAESSLYLQMNSLRAEDTAVYYCARWLAVTNWGQGTLVTVSSGGGGSGGGGSGGGGSQSVLTQPPSASGTPGQRVTISCSGSGSNIGSNDVSWYQQIPGTAPKLLIYWNDQRPSGVPDRFSGSKSGTSASLAISGLRSEDEADYYCAAWDDSLNGWVFGGGTKLTVL
notes: VH-(G4S)3-VL scFv
B5: BCMA-25 anti-BCMA scFv (scFv)
scFv: EVQLVQSGGGLVQPGRSLRLSCTASGFTFGDYAMSWFRQAPGKGLEWVGFIRSKAYGGTTEYAASVKGRFTISRDDSKSIAYLQMNSLKTEDTAVYYCAAWSAPTDYWGQGTLVTVSSGGGGSGGGGSGGGGSDIQMTQSPAFLSASVGDRVTVTCRASQGISNYLAWYQQKPGNAPRLLIYSASTLQSGVPSRFRGTGYGTEFSLTIDSLQPEDFATYYCQQSYTSRQTFGPGTRLDIK
notes: VH-(G4S)3-VL scFv
B6: BCMA-23 anti-BCMA scFv (scFv)
scFv: EVQLVESGGGLVKPGGSLRLSCAASGFTFSDYYMSWIRQAPGKGLEWVSYISSSGSTIYYADSVKGRFTISRDNAKNSLYLQMNSLRAEDTAVYYCAKVDGDYTEDYWGQGTLVTVSSGGGGSGGGGSGGGGSQSALTQPASVSGSPGQSITISCTGSSSDVGKYNLVSWYQQPPGKAPKLIIYDVNKRPSGVSNRFSGSKSGNTATLTISGLQGDDEADYYCSSYGGSRSYVFGTGTKVTVL
notes: BCMA-22 with the first residue of CDR-L3 (cysteine) replaced by serine
B7: BCMA-7 anti-BCMA scFv (scFv)
scFv: QVQLVQSGGGLVQPGRSLRLSCTASGFTFGDYAMSWFRQAPGKGLEWVGFIRSKAYGGTTEYAASVKGRFTISRDDSKSIAYLQMNSLKTEDTAVYYCAAWSAPTDYWGQGTLVTVSSGGGGSGGGGSGGGGSVIQLTQSPSSLSASVGDRVTITCRASQDIGDYLAWFQQRPGKAPKSLIYVASTLQSGVPSRFSGSGSGTHFTLTINSLQPEDFATYYCQQYHSHPWTFGPGTKVDIK
notes: VH-(G4S)3-VL scFv
B8: BCMA-2 anti-BCMA scFv (scFv)
scFv: EVQLVESGGGLVKPGGSLRLSCAASGFTFSDYYMSWIRQAPGKGLEWVSYISSSGSTIYYADSVKGRFTISRDNAKNSLYLQMNSLRAEDTAVYYCAKVDGPPSSDIWGQGTMVTVSSGGGGSGGGGSGGGGSEIVMTQSPATLSVSPGETATLSCRASQSIKTNLAWYQQKPGQAPRLLIYAASTRATGIPDRFSGSGSGTDFTLTITRLEPEDFAVYYCQQYGSSPTFGRGTKLEIK
notes: VH-(G4S)3-VL scFv
B9: BCMA-8 anti-BCMA scFv (scFv)
scFv: QVQLVQSGGGLVQPGRSLRLSCTASGFTFGDYAMSWFRQAPGKGLEWVGFIRSKAYGGTTEYAASVKGRFTISRDDSKSIAYLQMNSLKTEDTAVYYCAAWSAPTDYWGQGTLVTVSSGGGGSGGGGSGGGGSDIVMTQSPDSLAVSLGERATINCKSSQSVLYSSNNKNYLAWYQQKPGQPPKLLIYWASTRESGVPDRFSGSGSGTDFTLTISSLQAEDVAVYYCQQYYSTPYTFGQGTKLEIK
notes: VH-(G4S)3-VL scFv
B10: BCMA-31 anti-BCMA scFv (scFv)
scFv: EVQLVQSGGGLVQPGRSLRLSCTASGFTFGDYAMSWFRQAPGKGLEWVGFIRSKAYGGTTEYAASVKGRFTISRDDSKSIAYLQMNSLKTEDTAVYYCAAWSAPTDYWGQGTLVTVSSGGGGSGGGGSGGGGSDVVMTQSPDSLAVSLGERATISCKSSQSVLNSSNNKNYVAWYKQKPGQPPKLVISWASTRESGVPDRFSGSGSGTDFTLTISSLQAEDVAVYYCQQYYSTPYTFGQGTKLDIK
notes: VH-(G4S)3-VL scFv
B11: BCMA-3 anti-BCMA scFv (scFv)
scFv: QVQLVQSGGGLVQPGRSLRLSCTASGFTFGDYAMSWFRQAPGKGLEWVGFIRSKAYGGTTEYAASVKGRFTISRDDSKSIAYLQMNSLKTEDTAVYYCAAWSAPTDYWGQGTLVTVSSGGGGSGGGGSGGGGSDIVMTQSPDSLVVSLGERATINCKSSQSVLHSSNNKNYLAWYQQKPGQPPKLLIYWASTRESGVPDRFSGSGSGTDFTLTISSLQAEDVAVYYCQQYYTTPLTFGGGTKVEIK
notes: VH-(G4S)3-VL scFv
B12: BCMA-9 anti-BCMA scFv (scFv)
scFv: EVQLVQSGGGLVKPGGSLRLSCAASGFTFSDYYMSWIRQAPGKGLEWVSYISSSGSTIYYADSVKGRFTISRDNAKNSLYLQMNSLRAEDTAVYYCARVDGDYVDDYWGQGTLVTVSSGGGGSGGGGSGGGGSSYELTQPPSVSVAPGQTARVTCGANNIGSKSVHWYQQKPGQAPMLVVYDDDDRPSGIPERFSGSNSGNTATLTISGVEAGDEADYFCHVWDRSRDHYVFGTGTKLTVL
notes: VH-(G4S)3-VL scFv
B13: BCMA-10 anti-BCMA scFv (scFv)
scFv: EVQLVESGGGLVKPGGSLRLSCAASGFPFSDYYMSWIRQAPGKGLEWVSYISSSGSTIYYADSVKGRFTISRDNAKNSLYLQMNSLRAEDTAVYYCAKVDGPPSFDIWGQGTMVTVSSGGGGSGGGGSGGGGSSYVLTQPPSVSVAPGQTARITCGGNNIERKNVHWYQQKPGQAPVPVVYDDSDRASGIPERFSASNSGNTATLTISGAQATDEAEYYCQAWDSSSTLYVFGTGTKLTVL
notes: VH-(G4S)3-VL scFv
B14: BCMA-4 anti-BCMA scFv (scFv)
scFv: QVQLVQSGGGLVQPGRSLRLSCTASGFTFGDYAMSWFRQAPGKGLEWVGFIRSKAYGGTTEYAASVKGRFTISRDDSKSIAYLQMNSLKTEDTAVYYCAAWSAPTDYWGQGTLVTVSSGGGGSGGGGSGGGGSAIRMTQSPSSLSASLGDRVTITCRASQDIRNSLAWYQQRPGKAPKLLLSAASRLESGVPSRFSGTTSGAEYALSISSLQPEDVASYFCQQYYSLPLSFGGGTKVEIK
notes: VH-(G4S)3-VL scFv
B15: BCMA-12 anti-BCMA scFv (scFv)
scFv: EVQLVESGGGLVKPGGSLRLSCAASGFTFSDYYMSWIRQAPGKGLEWVSYISSSGSTIYYADSVKGRFTISRDNAKNSLYLQMNSLRAEDTAVYYCAKVDGPPSFDIWGQGTMVTVSSGGGGSGGGGSGGGGSQSALTQPPSVSAAPGQKVTISCSGSRSNIGNNYVSWYQQLPGTAPKLLIYDNAKRPSGIPDRFSGSKSGTSATLDIAGLQTGDEADYYCQVWDSSSDHWVFGGGTKLTVL
notes: VH-(G4S)3-VL scFv
B16: BCMA-32 anti-BCMA scFv (scFv)
scFv: QVQLVESGGGLVKPGGSLRLSCAASGFTFSDYYMSWIRQAPGKGLEWVSYISSSGSTIYYADSVKGRFTISRDNAKNSLYLQMNSLRAEDTAVYYCAKVDGPPSFDIWGQGTMVTVSSGGGGSGGGGSGGGGSQTVVTQPPSVSVAPGQTARITCGGNNIGSKGVHWYRQRPGQAPEVVIYDDSDRPSGVPDRFSGSNSGNTATLTVRGVEAGDEADYYCQVWDSSSDHWVFGGGTKLTVL
notes: VH-(G4S)3-VL scFv

The first assay addresses T1, human BCMA (B-cell maturation antigen) …. Briefly: flow cytometry, hBCMA-expressing HEK293 against parental HEK293 cells. As to the method:
Binding of exemplary scFv clones to hBMCA-expressing HEK293 cells was assessed and binding was compared to parental HEK293 cells.
(In flow cytometry, cells or beads pass a laser one at a time.)
As for B1, the “fold selective binding (hBCMA-expressing HEK293 over parental HEK293 cells)” value (“fold selective binding” below) is 7.5 fold.
For B2, the “fold selective binding” value was found to be 3.4 fold.
Take B3: the “fold selective binding” value was 10.8 fold.
On to B4, for which the “fold selective binding” value was found to be 2.2 fold.

For another assay, the target named is T2, BCMA peptide 30SNTPPLTCQR39. In words: CLIPS peptide array ELISA. As to the method: Epitopes recognized, e.g., specifically bound to, by exemplary anti-BCMA scFv clones (BCMA-1, BCMA-5, BCMA-9, BCMA-23, BCMA-25, BCMA-26, BCMA-52 and BCMA-55 anti-BCMA scFvs), were assessed using full discontinuous epitope mapping by Chemical Linkage of Peptides onto Scaffolds (CLIPS; Pepscan Presto BV, Lelystad, The Netherlands; see, e.g., Timmerman et al., (2007) J. Mol. Recognit. 20: 283-329). Mapping was carried out using anti-BCMA scFv clones, such as those fused with mouse Fc (scFv-mFc).
Linear and conformational peptide libraries of amino acid residues 1-54 of human BCMA (set forth as amino acid residues 1-54 of SEQ ID NO:367) were generated based on a combinatorial matrix design. Linear peptides and structural mimetics including single loop, α-helix, β-turn, combinatorial and linear disulfide bridge mimics, and discontinuous epitope mimics were used, along with positive and negative control peptides, on an amino-functionalized solid support.
Affinities for binding to the peptides in the epitope library were determined using ELISA. The peptide arrays were incubated with a solution containing the scFv overnight at 4° C. Affinity information was used in iterative screens to define the sequence and conformation of epitopes. Heat maps of affinity information for two or more loops were generated.
Background: In an ELISA, binding on a coated surface is turned into a signal by an enzyme label.
Consider B5, for which the binding result was “binds”.
Take B6: the binding result is reported as “binds”.

A further assay has as its target T1, human BCMA (B-cell maturation antigen) …. In words: flow cytometry, hBCMA-overexpressing HEK293 compared with OPM2 and RPMI-8226 cells. As to the method: Binding of exemplary scFv clones to hBMCA-overexpressing HEK293 cells as compared to OPM2 and RPMI-8226 cell lines that express moderate levels of endogenous BCMA was assessed.
As to B7, the binding result is listed as “binds”.
With B8, the binding result is “binds”.
In the case of B9, the binding result was “binds”.
Take B10: the binding result is recorded as “binds”.
Take B11: the binding result was “binds”.
As to B12, the binding result is reported as “binds”.
In the case of B13, the binding result is given as “binds”.
Consider B14, for which the binding result was “binds”.
Regarding B15, the binding result was “binds”.
Regarding B16, the binding result is reported as “binds”.
